Assay: in vivo
Parameters: species or system mice
Conditions: male, NODSCID 1L2RγKO, mouse, iv, total radioactivity

Which tissue uptake at 1 h (Adrenal glands uptake) does the source give for `O=C(O)CCC[C@H](NC(=O)N[C@@H](CCCCNC(=O)[C@H](Cc1c2ccccc2cc2ccccc12)NC(=O)[C@H]1CC[C@H](CNC(=O)[C@H](CCCCNC(=O)CN2CCN(CC(=O)O)CCN(CC(=O)O)CCN(CC(=O)O)CC2)NC(=O)CNC(=O)CCCc2ccc(Cl)cc2)CC1)C(=O)O)C(=O)O` [177Lu-HTK03153, metal not drawn] here?
Its tissue uptake at 1 h is 4.52 ± 0.46 %ID/g.

And the tissue uptake at 4 h (Adrenal glands uptake)?
The tissue uptake at 4 h was 3.5 ± 0.46 %ID/g.

And the tissue uptake at 24 h (Adrenal glands uptake)?
Its tissue uptake at 24 h is 2.35 ± 0.47 %ID/g.

And the tissue uptake at 72 h (Adrenal glands uptake)?
The tissue uptake at 72 h was 1.2 ± 0.26 %ID/g.

What about the tissue uptake at 120 h (Adrenal glands uptake) of the same molecule?
The tissue uptake at 120 h was 0.82 ± 0.19 %ID/g.

What about the tissue uptake at 1 h (Blood uptake) of the same molecule?
Its tissue uptake at 1 h is 24.7 ± 2.11 %ID/g.

What about the tissue uptake at 4 h (Blood uptake) of the same molecule?
The tissue uptake at 4 h was 18.8 ± 1.16 %ID/g.

What about the tissue uptake at 24 h (Blood uptake) of the same molecule?
Its tissue uptake at 24 h is 7.44 ± 1.12 %ID/g.

And the tissue uptake at 72 h (Blood uptake)?
The tissue uptake at 72 h was 1.46 ± 0.58 %ID/g.

And the tissue uptake at 120 h (Blood uptake)?
The tissue uptake at 120 h was 0.37 ± 0.13 %ID/g.

What about the tissue uptake at 1 h (Bone uptake) of the same molecule?
Its tissue uptake at 1 h is 1.26 ± 0.15 %ID/g.

What about the tissue uptake at 4 h (Bone uptake) of the same molecule?
The tissue uptake at 4 h was 0.83 ± 0.15 %ID/g.

And the tissue uptake at 24 h (Bone uptake)?
Its tissue uptake at 24 h is 0.4 ± 0.08 %ID/g.

And the tissue uptake at 72 h (Bone uptake)?
The tissue uptake at 72 h was 0.16 ± 0.06 %ID/g.

And the tissue uptake at 120 h (Bone uptake)?
Its tissue uptake at 120 h is 0.06 ± 0.04 %ID/g.

And the tissue uptake at 1 h (Brain uptake)?
The tissue uptake at 1 h was 0.35 ± 0.03 %ID/g.

And the tissue uptake at 4 h (Brain uptake)?
Its tissue uptake at 4 h is 0.27 ± 0.03 %ID/g.

And the tissue uptake at 24 h (Brain uptake)?
The tissue uptake at 24 h was 0.13 ± 0.02 %ID/g.

And the tissue uptake at 72 h (Brain uptake)?
Its tissue uptake at 72 h is 0.05 ± 0.02 %ID/g.

What about the tissue uptake at 120 h (Brain uptake) of the same molecule?
The tissue uptake at 120 h was 0.03 %ID/g.

And the tissue uptake at 1 h (Fat uptake)?
Its tissue uptake at 1 h is 1.61 ± 0.36 %ID/g.

What about the tissue uptake at 4 h (Fat uptake) of the same molecule?
The tissue uptake at 4 h was 1.46 ± 0.36 %ID/g.

And the tissue uptake at 24 h (Fat uptake)?
The tissue uptake at 24 h was 0.66 ± 0.16 %ID/g.

What about the tissue uptake at 72 h (Fat uptake) of the same molecule?
Its tissue uptake at 72 h is 0.3 ± 0.13 %ID/g.

What about the tissue uptake at 120 h (Fat uptake) of the same molecule?
The tissue uptake at 120 h was 0.19 ± 0.09 %ID/g.

And the tissue uptake at 1 h (Heart uptake)?
Its tissue uptake at 1 h is 5.95 ± 0.44 %ID/g.

What about the tissue uptake at 4 h (Heart uptake) of the same molecule?
Its tissue uptake at 4 h is 4.26 ± 0.44 %ID/g.

What about the tissue uptake at 24 h (Heart uptake) of the same molecule?
Its tissue uptake at 24 h is 1.9 ± 0.25 %ID/g.

And the tissue uptake at 72 h (Heart uptake)?
The tissue uptake at 72 h was 0.68 ± 0.25 %ID/g.

What about the tissue uptake at 120 h (Heart uptake) of the same molecule?
The tissue uptake at 120 h was 0.32 ± 0.07 %ID/g.

And the tissue uptake at 1 h (Intestine uptake)?
The tissue uptake at 1 h was 1.56 ± 0.16 %ID/g.

What about the tissue uptake at 4 h (Intestine uptake) of the same molecule?
The tissue uptake at 4 h was 1.22 ± 0.16 %ID/g.

What about the tissue uptake at 24 h (Intestine uptake) of the same molecule?
The tissue uptake at 24 h was 0.78 ± 0.1 %ID/g.

And the tissue uptake at 72 h (Intestine uptake)?
Its tissue uptake at 72 h is 0.3 ± 0.1 %ID/g.

What about the tissue uptake at 120 h (Intestine uptake) of the same molecule?
Its tissue uptake at 120 h is 0.18 ± 0.08 %ID/g.

And the tissue uptake at 1 h (Kidneys uptake)?
Its tissue uptake at 1 h is 10 ± 1.09 %ID/g.

And the tissue uptake at 4 h (Kidneys uptake)?
The tissue uptake at 4 h was 9.1 ± 1.09 %ID/g.

And the tissue uptake at 24 h (Kidneys uptake)?
Its tissue uptake at 24 h is 8.81 ± 1.06 %ID/g.

And the tissue uptake at 72 h (Kidneys uptake)?
Its tissue uptake at 72 h is 4.95 ± 2.39 %ID/g.

What about the tissue uptake at 120 h (Kidneys uptake) of the same molecule?
Its tissue uptake at 120 h is 2.81 ± 0.35 %ID/g.

What about the tissue uptake at 1 h (Lacrimal uptake) of the same molecule?
The tissue uptake at 1 h was 0.35 ± 0.07 %ID/g.

And the tissue uptake at 4 h (Lacrimal uptake)?
Its tissue uptake at 4 h is 0.35 ± 0.14 %ID/g.

And the tissue uptake at 24 h (Lacrimal uptake)?
Its tissue uptake at 24 h is 0.18 ± 0.06 %ID/g.

What about the tissue uptake at 72 h (Lacrimal uptake) of the same molecule?
Its tissue uptake at 72 h is 0.05 ± 0.05 %ID/g.

What about the tissue uptake at 120 h (Lacrimal uptake) of the same molecule?
Its tissue uptake at 120 h is 0.02 ± 0.02 %ID/g.

What about the tissue uptake at 1 h (Liver uptake) of the same molecule?
The tissue uptake at 1 h was 3.61 ± 0.65 %ID/g.

And the tissue uptake at 4 h (Liver uptake)?
Its tissue uptake at 4 h is 3.19 ± 0.65 %ID/g.

And the tissue uptake at 24 h (Liver uptake)?
The tissue uptake at 24 h was 1.52 ± 0.25 %ID/g.

And the tissue uptake at 72 h (Liver uptake)?
Its tissue uptake at 72 h is 0.73 ± 0.21 %ID/g.

And the tissue uptake at 120 h (Liver uptake)?
The tissue uptake at 120 h was 0.4 ± 0.03 %ID/g.

What about the tissue uptake at 1 h (Lungs uptake) of the same molecule?
Its tissue uptake at 1 h is 10.8 ± 1.38 %ID/g.

And the tissue uptake at 4 h (Lungs uptake)?
Its tissue uptake at 4 h is 9.4 ± 1.38 %ID/g.

And the tissue uptake at 24 h (Lungs uptake)?
The tissue uptake at 24 h was 3.93 ± 0.41 %ID/g.

What about the tissue uptake at 72 h (Lungs uptake) of the same molecule?
Its tissue uptake at 72 h is 1.87 ± 1.31 %ID/g.

And the tissue uptake at 120 h (Lungs uptake)?
The tissue uptake at 120 h was 0.56 ± 0.12 %ID/g.

What about the tissue uptake at 1 h (Muscle uptake) of the same molecule?
Its tissue uptake at 1 h is 1.54 ± 0.16 %ID/g.

What about the tissue uptake at 4 h (Muscle uptake) of the same molecule?
The tissue uptake at 4 h was 1.19 ± 0.16 %ID/g.

What about the tissue uptake at 24 h (Muscle uptake) of the same molecule?
Its tissue uptake at 24 h is 0.56 ± 0.1 %ID/g.

What about the tissue uptake at 72 h (Muscle uptake) of the same molecule?
The tissue uptake at 72 h was 0.18 ± 0.07 %ID/g.

What about the tissue uptake at 120 h (Muscle uptake) of the same molecule?
The tissue uptake at 120 h was 0.07 ± 0.01 %ID/g.

And the tissue uptake at 1 h (Pancreas uptake)?
The tissue uptake at 1 h was 2.17 ± 0.21 %ID/g.

And the tissue uptake at 4 h (Pancreas uptake)?
The tissue uptake at 4 h was 1.6 ± 0.21 %ID/g.

And the tissue uptake at 24 h (Pancreas uptake)?
Its tissue uptake at 24 h is 0.77 ± 0.09 %ID/g.

And the tissue uptake at 72 h (Pancreas uptake)?
The tissue uptake at 72 h was 0.29 ± 0.13 %ID/g.

What about the tissue uptake at 120 h (Pancreas uptake) of the same molecule?
Its tissue uptake at 120 h is 0.15 ± 0.04 %ID/g.

What about the tissue uptake at 1 h (Salivary uptake) of the same molecule?
Its tissue uptake at 1 h is 3.56 ± 0.39 %ID/g.

What about the tissue uptake at 4 h (Salivary uptake) of the same molecule?
Its tissue uptake at 4 h is 2.86 ± 0.39 %ID/g.

And the tissue uptake at 24 h (Salivary uptake)?
Its tissue uptake at 24 h is 1.25 ± 0.14 %ID/g.

What about the tissue uptake at 72 h (Salivary uptake) of the same molecule?
Its tissue uptake at 72 h is 0.68 ± 0.22 %ID/g.

What about the tissue uptake at 120 h (Salivary uptake) of the same molecule?
Its tissue uptake at 120 h is 0.37 ± 0.04 %ID/g.

And the tissue uptake at 1 h (Seminal uptake)?
The tissue uptake at 1 h was 1.3 ± 0.32 %ID/g.

And the tissue uptake at 4 h (Seminal uptake)?
The tissue uptake at 4 h was 1.2 ± 0.32 %ID/g.

And the tissue uptake at 24 h (Seminal uptake)?
Its tissue uptake at 24 h is 0.7 ± 0.5 %ID/g.

What about the tissue uptake at 72 h (Seminal uptake) of the same molecule?
The tissue uptake at 72 h was 0.23 ± 0.11 %ID/g.

And the tissue uptake at 120 h (Seminal uptake)?
Its tissue uptake at 120 h is 0.15 ± 0.05 %ID/g.

And the tissue uptake at 1 h (Spleen uptake)?
Its tissue uptake at 1 h is 2.54 ± 0.27 %ID/g.

And the tissue uptake at 4 h (Spleen uptake)?
Its tissue uptake at 4 h is 1.54 ± 0.27 %ID/g.

And the tissue uptake at 24 h (Spleen uptake)?
Its tissue uptake at 24 h is 1.21 ± 0.24 %ID/g.

And the tissue uptake at 72 h (Spleen uptake)?
Its tissue uptake at 72 h is 1.03 ± 0.46 %ID/g.

What about the tissue uptake at 120 h (Spleen uptake) of the same molecule?
Its tissue uptake at 120 h is 1.53 ± 0.71 %ID/g.

And the tissue uptake at 1 h (Stomach uptake)?
The tissue uptake at 1 h was 0.89 ± 0.15 %ID/g.

What about the tissue uptake at 4 h (Stomach uptake) of the same molecule?
Its tissue uptake at 4 h is 0.71 ± 0.15 %ID/g.

What about the tissue uptake at 24 h (Stomach uptake) of the same molecule?
The tissue uptake at 24 h was 0.68 ± 0.15 %ID/g.

What about the tissue uptake at 72 h (Stomach uptake) of the same molecule?
The tissue uptake at 72 h was 0.31 ± 0.17 %ID/g.

And the tissue uptake at 120 h (Stomach uptake)?
The tissue uptake at 120 h was 0.15 ± 0.1 %ID/g.

And the tissue uptake at 1 h (Tail uptake)?
The tissue uptake at 1 h was 5.38 ± 5.96 %ID/g.

And the tissue uptake at 4 h (Tail uptake)?
The tissue uptake at 4 h was 6.89 ± 5.96 %ID/g.

What about the tissue uptake at 24 h (Tail uptake) of the same molecule?
The tissue uptake at 24 h was 1.55 ± 0.34 %ID/g.

What about the tissue uptake at 72 h (Tail uptake) of the same molecule?
Its tissue uptake at 72 h is 0.44 ± 0.15 %ID/g.

What about the tissue uptake at 120 h (Tail uptake) of the same molecule?
The tissue uptake at 120 h was 0.24 ± 0.04 %ID/g.

And the tissue uptake at 1 h (Testes uptake)?
The tissue uptake at 1 h was 3.24 ± 0.4 %ID/g.

What about the tissue uptake at 4 h (Testes uptake) of the same molecule?
The tissue uptake at 4 h was 3.45 ± 0.4 %ID/g.

What about the tissue uptake at 24 h (Testes uptake) of the same molecule?
Its tissue uptake at 24 h is 2.15 ± 0.33 %ID/g.

What about the tissue uptake at 72 h (Testes uptake) of the same molecule?
Its tissue uptake at 72 h is 1.38 ± 0.48 %ID/g.

And the tissue uptake at 120 h (Testes uptake)?
Its tissue uptake at 120 h is 0.98 ± 0.22 %ID/g.

And the tissue uptake at 1 h (Thyroid uptake)?
The tissue uptake at 1 h was 4.8 ± 0.32 %ID/g.

And the tissue uptake at 4 h (Thyroid uptake)?
The tissue uptake at 4 h was 3.57 ± 0.32 %ID/g.

What about the tissue uptake at 24 h (Thyroid uptake) of the same molecule?
Its tissue uptake at 24 h is 1.95 ± 0.32 %ID/g.

What about the tissue uptake at 72 h (Thyroid uptake) of the same molecule?
The tissue uptake at 72 h was 0.85 ± 0.28 %ID/g.

What about the tissue uptake at 120 h (Thyroid uptake) of the same molecule?
The tissue uptake at 120 h was 0.52 ± 0.12 %ID/g.

What about the tissue uptake at 1 h (Tumor uptake) of the same molecule?
The tissue uptake at 1 h was 14.2 ± 7.67 %ID/g.

And the tissue uptake at 4 h (Tumor uptake)?
Its tissue uptake at 4 h is 27.9 ± 7.67 %ID/g.

What about the tissue uptake at 24 h (Tumor uptake) of the same molecule?
The tissue uptake at 24 h was 57.2 ± 10.1 %ID/g.

What about the tissue uptake at 72 h (Tumor uptake) of the same molecule?
Its tissue uptake at 72 h is 69.1 ± 13.4 %ID/g.

And the tissue uptake at 120 h (Tumor uptake)?
Its tissue uptake at 120 h is 86.4 ± 8.05 %ID/g.

Source: patent US11504441B2, “Radiolabeled compounds targeting the prostate-specific membrane antigen” (PROVINCIAL HEALTH SERVICES AUTHORITY, priority 2019, dated 2022)
